# Patent US20200247901A1 (US Dept. of Health and Human Services, published 2020)
# Substitutions are numbered along the chain they refer to.
# B1: 15B6 anti-mesothelin antibody (IgG2b) (antibody, V domains shown)
# VH: EVQLQQSGPVLVKPGASVKISCKASGYSFTGYYMHWVRQSLVKRLEWIGRINPYTGVPSYKHNFKDKASLTVDKSSSTAYMELHSLTSEDSAVYYCARELGGYWGQGTTLTVSS
# VL: QAVVTQESALTTSPGETVTLTCRSSTGAVTTGNYPNWVQEKPDHLFTGLIAGTNNRAPGVPARFSGSLIGDKAALTITGAQTEDEAIYFCALWFSSHWVFGGGTKLTVL
# notes: Mouse hybridoma monoclonal antibody, IgG 2b; also called Mab 15B6; antibody 15B6
# B2: 2B4 anti-mesothelin antibody (IgG2a) (antibody, V domains shown)
# VH: EVQLQQSGPELVKPGASVKISCKASGYPFTGHYMHWVKQGHVKSLEWIGRINPYTGAINYNQNFKDKASLSVEKSSSTAYMGLHSLTSEDSAVYYCVRDLGGGYWGQGTTLTVSS
# VL: B1 VL with G32S, P35A, T82P, Y88F, F94Y
# notes: Mouse hybridoma monoclonal antibody, IgG 2a; also called antibody 2B4
# B3: 7B5 anti-mesothelin antibody (IgG1) (antibody, V domains shown)
# VH: B2 VH with A16T, S71T
# VL: B1 VL with G32S, P35A, T82P, I87M, Y88F, S95G
# notes: Mouse hybridoma monoclonal antibody, IgG 1; also called antibody 7B5
# B4: peptide 2 (CSMQEALS) (peptide)
# peptide: CSMQEALS
# notes: Mesothelin 592-598 with an added N-terminal cysteine
# B5: peptide 1 (CLVLDLSMQEALS) (peptide)
# peptide: CLVLDLSMQEALS
# notes: Mesothelin 587-598 with an added N-terminal cysteine
# What was measured:
# Fc-mesothelin 296-599 = target: T1, Fc-mesothelin 296-599 (human, UniProt Q13421 296-599); experiment: ELISA on Fc-mesothelin 296-599
# T1 construct: The order of the parts follows the printed name and is not otherwise stated; not shown: Fc part
# T1 sequence (Q13421 other isoform, or with tags, fused parts or gaps): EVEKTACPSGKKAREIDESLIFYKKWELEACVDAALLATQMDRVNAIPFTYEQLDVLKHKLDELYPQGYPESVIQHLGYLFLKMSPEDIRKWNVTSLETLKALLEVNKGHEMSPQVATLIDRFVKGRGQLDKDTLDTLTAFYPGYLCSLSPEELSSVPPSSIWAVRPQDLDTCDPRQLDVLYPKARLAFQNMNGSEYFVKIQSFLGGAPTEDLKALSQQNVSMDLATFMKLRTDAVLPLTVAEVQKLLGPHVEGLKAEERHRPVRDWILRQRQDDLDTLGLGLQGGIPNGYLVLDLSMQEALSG
# [1] = target: T2, mesothelin (296-585) attached to mouse transferrin receptor (TFR) transmembrane domain, on AB1-L9 cells (human; mouse, UniProt Q13421 296-585); experiment: binding to transfected AB1-L9 cells
# T2 construct: The order of the parts is as printed; also called AB1-L9 cell line
# T2 sequence (Q13421 other isoform, or with tags, fused parts or gaps): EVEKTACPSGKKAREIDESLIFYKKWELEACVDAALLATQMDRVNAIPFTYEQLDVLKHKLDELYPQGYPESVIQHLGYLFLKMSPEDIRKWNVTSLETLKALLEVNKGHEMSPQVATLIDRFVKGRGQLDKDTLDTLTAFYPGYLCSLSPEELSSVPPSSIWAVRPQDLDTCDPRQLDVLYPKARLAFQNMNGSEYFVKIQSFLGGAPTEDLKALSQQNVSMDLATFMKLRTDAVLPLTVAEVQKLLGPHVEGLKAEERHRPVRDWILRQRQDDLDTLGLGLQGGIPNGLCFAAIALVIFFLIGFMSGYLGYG
# [2] = target: B2; experiment: competition ELISA, antibody 30 ng/ml on coated MSLN-Fc, peptide titrated
# Description: (§1) A competition assay was completed using the following peptides: peptide 1 having the sequence CLVLDLSMQEALS (SEQ ID NO: 61) and peptide 2 having the sequence CSMQEALS (SEQ ID NO: 62). An ELISA plate was coated with MSLN(M)-Fc or MSLN(V)-Fc. After overnight incubation, the plates were blocked and washed. The anti-mesothelin stalk antibodies of Example 1 (30 ng/ml) and peptide 1 or peptide 2 were added at different concentrations (100 micrograms/ml to 0.00001 micrograms/ml). After washing, anti-mouse IgG-HRP conjugate were added. The OD was then measured with ELISA.
# [3] = target: B3; experiment: as above
# Description: as §1
# [4] = target: B1; experiment: as above
# Description: as §1
binding result (Fc-mesothelin 296-599),binding result [1],binding result [2],binding result [3],binding result [4],Binder
binds,no binding,,,,B1
binds,no binding,,,,B2
binds,no binding,,,,B3
,,no binding,no binding,no binding,B4
,,binds,binds,binds,B5
